According to CN101248088A (LILLY CO ELI, dated 2008):
Substitutions are numbered along the chain they refer to. Blank lines part the entries; values can stand above or below the molecule they belong to.

How the values were obtained:
[1] = molecular target: 人IL-23 (human IL-23, p19/p40 heterodimer) (human) (UniProt P29460); assay: cell-based or functional assay
[2] = molecular target: 人IL-23 (human IL-23, p19/p40 heterodimer) (human) (UniProt P29460); assay: SPR (BIAcore), antibody captured on protein A CM5 chip, human IL-23 in flow, HBS-EP pH 7.4, 25 °C
[3] = molecular target: T1, 人IL-23 (human IL-23, p19/p40 heterodimer) (human, UniProt P29460 23-328); assay: SPR (BIAcore)
T1 construct: Bought human IL-23 (R&D Systems); also called hIL-23; 成熟IL-23
T1 sequence 1: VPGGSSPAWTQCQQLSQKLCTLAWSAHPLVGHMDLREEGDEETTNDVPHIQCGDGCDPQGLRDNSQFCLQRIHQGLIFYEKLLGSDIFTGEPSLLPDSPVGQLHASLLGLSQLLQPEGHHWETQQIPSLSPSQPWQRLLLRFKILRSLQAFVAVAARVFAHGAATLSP
T1 sequence 2: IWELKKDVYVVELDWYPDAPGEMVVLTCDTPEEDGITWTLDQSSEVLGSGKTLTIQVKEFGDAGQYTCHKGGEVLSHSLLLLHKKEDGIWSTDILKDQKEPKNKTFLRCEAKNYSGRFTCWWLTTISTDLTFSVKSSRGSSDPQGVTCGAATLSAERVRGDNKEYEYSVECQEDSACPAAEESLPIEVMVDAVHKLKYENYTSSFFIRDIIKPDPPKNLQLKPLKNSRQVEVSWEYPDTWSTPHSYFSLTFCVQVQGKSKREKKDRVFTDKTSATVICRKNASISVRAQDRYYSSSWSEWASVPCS

[4] = molecular target: T1, 人IL-23 (human IL-23, p19/p40 …); assay: cell-based or functional assay

- IC50, 小鼠脾细胞测定法 (IL-23-stimulated IL-17 secretion of mouse splenocytes) [1]: 2.8 nM
- Kd [2]: 21.4 nM
- koff [2]: 0.000768 s⁻¹
- kon [2]: 36800 M⁻¹ s⁻¹
Molecule: MAB1290 (小鼠抗人IL-23单克隆抗体, 安迪生物科技 R&D Systems) (antibody)

- Kd [3]: < 0.16 nM
- IC50, 小鼠脾细胞测定法 [4]: < 0.02 nM
- IC50, 小鼠脾细胞测定法 (IL-23-stimulated IL-17 secretion of mouse splenocytes) [4]: 0.002 nM
B1: MAbQF20 (antibody, V domains shown)
VH: QVQLVQSGAEVKKPGASVKVSCKVSGKTFWSYGINWVRQAPGKGLEWMGYIYIGTGYTEPNPKYKGRVTMTEDTSTDTAYMELSSLRSEDTAVYYCATIGGYYGNFADWGQGTTVTVSS
VL: DVVMTQSPLSLPVTLGQPASISCRSSQSLLISGGKTYLNWFQQRPGQSPRRLIYLVSKLDQGVPDRFSGSGSGTDFTLKISRVEAEDVGVYYCWQGTYFPLTFGQGTKLEIK
notes: Humanised antibody

- Kd [3]: < 0.16 nM
- IC50, 小鼠脾细胞测定法 [4]: < 0.02 nM
- IC50, 小鼠脾细胞测定法 (IL-23-stimulated IL-17 secretion of mouse splenocytes) [4]: 0.002 nM
B2: MAbQF37 (antibody, V domains shown)
VH: B1 VH with A107D, D108Q
VL: B1 VL
notes: Humanised antibody
